# Laboratory results reported in publication PMC7532178, “Interaction of protocadherin-15 with the scaffold protein whirlin supports its anchoring of hair-bundle lateral links in cochlear hair cells” (Scientific Reports, 2020).
# B1: whirlin-NTR-PDZ1-Hp1 (aa residues 2-265) [mouse] / CDH23 C-terminal peptide (biotin-TTDS-VIMESPLEITEL) [modified: biotin-TTDS (trioxatridecan-succinamic acid spacer) on the N-terminus; biotin-TTDS (trioxatridecan-succinamic acid spacer) on … (parent complex)
# chain 1: GAMGSTSNAQLDGLSVSSSSTGSLGSAAAAAGGGGGAGLRLLSANVRQLHQALTALLSEPEREQFTHCLNAYHARRNVFDLVRTLRVLLDSPVKRRLLPMLRLVIPRSDQLLFDQYTAEGLYLPATTPYRQPAWAAPDGAGPGEVRLVSLRRAKAHEGLGFSIRGGSEHGVGIYVSLVEPGSLAEKEGLRVGDQILRVNDKSLARVTHAEAVKALKGSKKLVLSVYSAGRIPGGYVTNHIYTWVDPQGRSTSPPSSLPQPHGSTLRQREDD
# chain 2: VIMESPLEITEL
# B2: whirlin-NTR-PDZ1-Hp1 (aa residues 2-265) [mouse] / PCDH15-CD1 C-terminal peptide (biotin-TTDS-GIDVQPHSQSTSL) [modified: biotin-TTDS (trioxatridecan-succinamic acid spacer) on the N-terminus; biotin-TTDS (trioxatridecan-succinamic acid … (parent complex)
# chain 1: B1 chain 1
# chain 2: GIDVQPHSQSTSL
# B3: whirlin-NTR-PDZ1-Hp1 (aa residues 2-265) [mouse] / PCDH15-CD3 C-terminal peptide (biotin-TTDS-MGPWNSLHIPMTKL) [modified: biotin-TTDS (trioxatridecan-succinamic acid spacer) on the N-terminus; biotin-TTDS (trioxatridecan-succinamic acid … (parent complex)
# chain 1: B1 chain 1
# chain 2: MGPWNSLHIPMTKL
# B4: whirlin-NTR-PDZ1-Hp1 (aa residues 2-265) [mouse] / PCDH15-CD2 C-terminal peptide (biotin-TTDS-GANSEQYNTAL) [modified: biotin-TTDS (trioxatridecan-succinamic acid spacer) on the N-terminus; biotin-TTDS (trioxatridecan-succinamic acid … (parent complex)
# chain 1: B1 chain 1
# chain 2: GANSEQYNTAL
# Variants of: B1
# Assay: SPR; whirlin construct at 10 μM; peptide immobilized via N-terminal biotin tag; parent: 11; read off a plot
row,Variant,response [% site occupancy]
1,chain 1 GAMGSTSNAQLDGLSVSSSSTGSLGSAAAAAGGGGGAGLRLLSANVRQLHQALTALLSEPEREQFTHCLNAYHARRNVFDLVRTLRVLLDSPVKRRLLPMLRLVIPRSDQLLFDQYTAEGLYLPATTPYRQPAWAAPDGAGPGEVRLVSLRRAKAHEGLAFSIRGGSEHGVGIYVSLVEPGSLAEKEGLRVGDQILRVNDKSLARVTHAEAVKALKGSKKLVLSVYSAGRIPGGYVTNHIYTWVDPQGRSTSPPSSLPQPHGSTLRQREDD [chain 1 G160A],~1.5
2,chain 1 GAMGSTSNAQLDGLSVSSSSTGSLGSAAAAAGGGGGAGLRLLSANVRQLHQALTALLSEPEREQFTHCLNAYHARRNVFDLVRTLRVLLDSPVKRRLLPMLRLVIPRSDQLLFDQYTAEGLYLPATTPYRQPAWAAPDGAGPGEVRLVSLRRAKAHEGLGFSIRGGSEHGVGIYVSLVEPGSLAEKEGLRVGDQILRVNDKSLARVTYAEAVKALKGSKKLVLSVYSAGRIPGGYVTNHIYTWVDPQGRSTSPPSSLPQPHGSTLRQREDD [chain 1 H208Y],~1

# Variants of: B2
# Assay: SPR; whirlin construct at 10 μM; peptide immobilized via N-terminal biotin tag; parent: 23; read off a plot
row,Variant,response [% site occupancy]
1,chain 1 GAMGSTSNAQLDGLSVSSSSTGSLGSAAAAAGGGGGAGLRLLSANVRQLHQALTALLSEPEREQFTHCLNAYHARRNVFDLVRTLRVLLDSPVKRRLLPMLRLVIPRSDQLLFDQYTAEGLYLPATTPYRQPAWAAPDGAGPGEVRLVSLRRAKAHEGLAFSIRGGSEHGVGIYVSLVEPGSLAEKEGLRVGDQILRVNDKSLARVTHAEAVKALKGSKKLVLSVYSAGRIPGGYVTNHIYTWVDPQGRSTSPPSSLPQPHGSTLRQREDD [chain 1 G160A],~2
2,chain 1 GAMGSTSNAQLDGLSVSSSSTGSLGSAAAAAGGGGGAGLRLLSANVRQLHQALTALLSEPEREQFTHCLNAYHARRNVFDLVRTLRVLLDSPVKRRLLPMLRLVIPRSDQLLFDQYTAEGLYLPATTPYRQPAWAAPDGAGPGEVRLVSLRRAKAHEGLGFSIRGGSEHGVGIYVSLVEPGSLAEKEGLRVGDQILRVNDKSLARVTYAEAVKALKGSKKLVLSVYSAGRIPGGYVTNHIYTWVDPQGRSTSPPSSLPQPHGSTLRQREDD [chain 1 H208Y],~-1

# Variants of: B3
# Assay: SPR; whirlin construct at 10 μM; peptide immobilized via N-terminal biotin tag; parent: 29; read off a plot
row,Variant,response [% site occupancy]
1,chain 1 GAMGSTSNAQLDGLSVSSSSTGSLGSAAAAAGGGGGAGLRLLSANVRQLHQALTALLSEPEREQFTHCLNAYHARRNVFDLVRTLRVLLDSPVKRRLLPMLRLVIPRSDQLLFDQYTAEGLYLPATTPYRQPAWAAPDGAGPGEVRLVSLRRAKAHEGLGFSIRGGSEHGVGIYVSLVEPGSLAEKEGLRVGDQILRVNDKSLARVTYAEAVKALKGSKKLVLSVYSAGRIPGGYVTNHIYTWVDPQGRSTSPPSSLPQPHGSTLRQREDD [chain 1 H208Y],~1.5
2,chain 1 GAMGSTSNAQLDGLSVSSSSTGSLGSAAAAAGGGGGAGLRLLSANVRQLHQALTALLSEPEREQFTHCLNAYHARRNVFDLVRTLRVLLDSPVKRRLLPMLRLVIPRSDQLLFDQYTAEGLYLPATTPYRQPAWAAPDGAGPGEVRLVSLRRAKAHEGLAFSIRGGSEHGVGIYVSLVEPGSLAEKEGLRVGDQILRVNDKSLARVTHAEAVKALKGSKKLVLSVYSAGRIPGGYVTNHIYTWVDPQGRSTSPPSSLPQPHGSTLRQREDD [chain 1 G160A],~9.5

# Variants of: B4
# Assay: SPR; whirlin construct at 10 μM; peptide immobilized via N-terminal biotin tag; parent: 15; read off a plot
row,Variant,response [% site occupancy]
1,chain 1 GAMGSTSNAQLDGLSVSSSSTGSLGSAAAAAGGGGGAGLRLLSANVRQLHQALTALLSEPEREQFTHCLNAYHARRNVFDLVRTLRVLLDSPVKRRLLPMLRLVIPRSDQLLFDQYTAEGLYLPATTPYRQPAWAAPDGAGPGEVRLVSLRRAKAHEGLGFSIRGGSEHGVGIYVSLVEPGSLAEKEGLRVGDQILRVNDKSLARVTYAEAVKALKGSKKLVLSVYSAGRIPGGYVTNHIYTWVDPQGRSTSPPSSLPQPHGSTLRQREDD [chain 1 H208Y],~0.5
2,chain 1 GAMGSTSNAQLDGLSVSSSSTGSLGSAAAAAGGGGGAGLRLLSANVRQLHQALTALLSEPEREQFTHCLNAYHARRNVFDLVRTLRVLLDSPVKRRLLPMLRLVIPRSDQLLFDQYTAEGLYLPATTPYRQPAWAAPDGAGPGEVRLVSLRRAKAHEGLAFSIRGGSEHGVGIYVSLVEPGSLAEKEGLRVGDQILRVNDKSLARVTHAEAVKALKGSKKLVLSVYSAGRIPGGYVTNHIYTWVDPQGRSTSPPSSLPQPHGSTLRQREDD [chain 1 G160A],~2.5
